Laboratory results as given in publication PMC7730289.

Assays:
Assay in all cases: flow cytometry
[1] = target: CD63 overexpressed on HEK293T cells (UniProt P08962); settings: HEK293T/CD63 cells; PBS pH 7.4, 2.0 mM MgCl2, 0.02% Tween 20, 100 ug/mL salmon sperm DNA; ELISA 0.5 h; cells at RT 1 h (Methods) or 37 C 30 min (Results)
[2] = test system: CD63-negative HEK293T cells; settings: PBS pH 7.4, 2.0 mM MgCl2, 0.02% Tween 20, 100 ug/mL salmon sperm DNA, ELISA 0.5 h, cells at RT 1 h (Methods) or 37 C 30 min (Results)
CD63 on MDA-MB-231 cells = CD63 on MDA-MB-231 cells (UniProt P08962); settings: MDA-MB-231 cells; PBS pH 7.4, 2.0 mM MgCl2, 0.02% Tween 20, 100 ug/mL salmon sperm DNA; ELISA 0.5 h; cells at RT 1 h (Methods) or 37 C 30 min (Results)
CD63 on MDA-MB-231 cells, sequence (P08962 2-238): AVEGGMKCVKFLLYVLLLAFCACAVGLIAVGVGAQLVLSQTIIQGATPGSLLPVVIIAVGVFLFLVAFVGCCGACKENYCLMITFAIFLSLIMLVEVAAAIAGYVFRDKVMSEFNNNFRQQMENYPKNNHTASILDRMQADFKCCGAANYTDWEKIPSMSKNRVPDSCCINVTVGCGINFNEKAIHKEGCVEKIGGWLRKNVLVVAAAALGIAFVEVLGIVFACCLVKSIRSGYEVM

CD63 overexpressed on HEK293T cells, sequence (P08962 whole entry): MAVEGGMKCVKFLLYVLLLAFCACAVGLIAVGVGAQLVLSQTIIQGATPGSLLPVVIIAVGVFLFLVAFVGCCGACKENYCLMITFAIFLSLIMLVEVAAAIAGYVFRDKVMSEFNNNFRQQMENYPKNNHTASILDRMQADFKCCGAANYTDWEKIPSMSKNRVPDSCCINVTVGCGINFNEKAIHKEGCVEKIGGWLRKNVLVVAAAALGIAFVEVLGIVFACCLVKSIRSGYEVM

TAACACGACAGACGTTCGGAGGTCGAACCCTGACAGCGTGGGC [CD63-1 FAM]
Kd [1]: 113 nM
Kd [2]: > 1000 nM
Kd (CD63 on MDA-MB-231 cells): 96.9 nM
